Patent US6903203B2, “Monoclonal antibody to CEA, conjugates comprising said antibody and their therapeutic use” (AstraZeneca UK Ltd., priority 1996, dated 2005)

Tests used:
[1] = target: T1, CEA (Homo sapiens, UniProt P06731); assay: CEA binding ELISA; details: media of NS0 clones
T1 sequence (P06731 35-676): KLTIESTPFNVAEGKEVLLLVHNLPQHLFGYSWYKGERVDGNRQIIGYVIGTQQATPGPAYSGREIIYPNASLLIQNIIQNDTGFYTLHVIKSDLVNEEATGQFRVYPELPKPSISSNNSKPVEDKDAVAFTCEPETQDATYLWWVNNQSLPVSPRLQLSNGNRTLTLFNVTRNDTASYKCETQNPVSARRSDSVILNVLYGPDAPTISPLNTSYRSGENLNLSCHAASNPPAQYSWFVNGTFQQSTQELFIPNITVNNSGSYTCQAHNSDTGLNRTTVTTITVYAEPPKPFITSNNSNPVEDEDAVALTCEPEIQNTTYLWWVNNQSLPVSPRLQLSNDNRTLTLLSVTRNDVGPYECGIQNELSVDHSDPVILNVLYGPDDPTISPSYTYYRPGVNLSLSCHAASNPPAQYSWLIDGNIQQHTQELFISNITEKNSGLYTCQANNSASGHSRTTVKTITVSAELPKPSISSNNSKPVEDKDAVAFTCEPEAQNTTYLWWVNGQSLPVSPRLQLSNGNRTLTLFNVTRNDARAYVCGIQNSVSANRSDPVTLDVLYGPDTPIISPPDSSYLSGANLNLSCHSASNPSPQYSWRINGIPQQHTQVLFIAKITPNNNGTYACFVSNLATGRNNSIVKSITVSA
Procedure: For the CEA ELISA each well of a 96 well immunoplate (NUNC MAXISORB™) was coated with 50 ng CEA in 50 mM carbonate/bicarbonate coating buffer pH9.6 (buffer capsules—Sigma C3041) and incubated at 4° C. overnight. The plate was washed three times with PBS+0.05% Tween 20 and then blocked 150 μl per well of 1% BSA in PBS +0.05% Tween 20 for 1 hour at room temperature. The plate was washed as previously described, 100 μl of test sample added per well and incubated at room temperature for 2 hours. Again the plate was washed three times with PBS+0.05% Tween 20, 100 μl per well of a 1/500 dilution of HRPO-labelled goat anti-human kappa antibody (Sigma A 7164) was added, in 1% BSA in PBS-Tween 20 and incubated at room temperature on a rocking platform for at least 1 hour. The plate was washed as before and then once more with PBS. To detect binding add 100 μl per well developing solution (one capsule of phosphate-citrate buffer—Sigma P4922—dissolved in 100 mls H2O to which is added one 30 mg tablet o-phenylenediamine dihydrochloride—Sigma P8412) and incubated for up to 15 minutes. The reaction was stopped by adding 75 μl 2M H2SO4, and absorbance read at 490 nm.
Media from wells containing single viable clones was taken for testing and replaced with fresh media (containing G418). […]

[2] = system: Post mortem normal tissues; assay: Three-stage indirect immunohistology on frozen sections, post mortem normal tissues; assay type: binding, human; details: cerebellum, mid-brain, cerebrum, smooth muscle, liver, kidney, aorta, stomach, heart; 2 μg/ml
Procedure: (§1) To assess selectivity, many human normal and tumour tissues have been screened for reactivity with the antibody 806.077, using sensitive three-stage indirect immunohistology on acetone-fixed, frozen cryostat sections.
(§2) Immunohistology was carried out on sections of human tissue obtained either at resection surgery or at post mortem. To preserve optimal morphology and antigenicity, tissues were obtained as fresh as possible, cut into small pieces (about 0.5 cm^3) and flash frozen in liquid nitrogen prior to storage at −80° C. Sections of tissue (6μ) were cut on a cryostat, mounted on polylysine coated slides (e.g. blue TECHMATE™ slides, Dako) and fixed in ice-cold acetone for 2 minutes before being wrapped in foil and stored at −80° C.
(§3) Slides were allowed to defrost at room temperature before being unwrapped from the foil immediately prior to use. Each section was outlined with a diamond marker, and to each section was added either 100 μl 806.077 antibody diluted to 2 μg/ml in Tris-buffered Saline (TBS), or 100 μl CEA/NCA reactive control (A5B7 antibody) at 2 μg/ml in TBS, or 100 μl MOPC isotype control (Sigma Chemical Company, St. Louis, U.S.A., Cat. No. M 9269) at 2 μg/ml in TBS, or relevant positive control such as LP34 (Dako). All subsequent incubations were carried out at room temperature for 30 minutes in a humidified chamber: all wash steps were in TBS with 2 changes. […]

[3] = system: Spleen (granulocyte/NCA reactivity); assay: Three-stage indirect immunohistology on frozen sections, normal spleen; assay type: binding, human
Procedure: as §1, §2, §3

[4] = system: Ovary tumours; assay: Three-stage indirect immunohistology on frozen sections, ovary tumours; assay type: binding, human; details: Ovary tumours (n=3), any tumour; 2 μg/ml
Procedure: as §1, §2, §3

[5] = system: NSCLC tumours; assay: Three-stage indirect immunohistology on frozen sections, NSCLC tumours; assay type: binding, human; details: NSCLC tumours (n=6), score seen in 1/6 tumours; 2 μg/ml
Procedure: as §1, §2, §3

[6] = system: Lung (NCA reactivity); assay: Three-stage indirect immunohistology on frozen sections, normal lung; assay type: binding, human; design: key to degree of binding (staining score): +++ (strong)=antibody binding to >75% tumour cells; ++ (moderate)=antibody binding to 50%-75% tumour cells; + (weak)=antibody binding to 25%-50% tumour cells; +/− (minimal)=non-focal antibody binding to a small area of tumour cells; −=no staining
Procedure: as §1, §2
(§4) Slides were allowed to defrost at room temperature before being unwrapped from the foil immediately prior to use. […] Louis, U.S.A., Cat. No. M 9269) at 2 μg/ml in TBS, or relevant positive control such as LP34 (Dako). All subsequent incubations were carried out at room temperature for 30 minutes in a humidified chamber: all wash steps were in TBS with 2 changes. After incubation, the slides were washed and 100 μl of second antibody reagent, comprising 1/50 rabbit anti-mouse immunoglobulins conjugated to horse radish peroxidase (Dako Patts) and ⅕ normal human serum (Sigma) in TBS was added to each section.
The slides were again incubated and washed in TBS. A final detecting antibody, 100 μl swine anti-rabbit immunoglobulin conjugated to horse radish peroxidase ( 1/50 dilution with ⅕ normal human serum in TBS), was added to each section, incubated and washed thoroughly. DAB substrate (3,3′-diaminobenzidine tetrahydrochloride) was prepared using 1 DAB tablet (Sigma) with hydrogen peroxide (17 μl) in TBS (17 ml), and added dropwise through a fast filter paper (e.g. Whatman Number 4). After 3 minutes incubation the excess DAB was tapped off the slides and the slides were washed in TBS. […]

[7] = system: Breast tumours; assay: Three-stage indirect immunohistology on frozen sections, breast tumours; assay type: binding, human; design: key: +++ (strong)=antibody binding to >75% tumour cells; ++ (moderate)=antibody binding to 50%-75% tumour cells; + (weak)=antibody binding to 25%-50% tumour cells; +/− (minimal)=non-focal antibody binding to a small area of tumour cells; −=no staining; details: Breast tumours (n=6), score seen in 2/6 tumours; 2 μg/ml
Procedure: as §1, §2, §3

[8] = system: prostate tumours; assay: Three-stage indirect immunohistology on frozen sections, prostate tumours; assay type: binding, human; details: prostate tumours (n=3), any tumour; 2 μg/ml
Procedure: as §1, §2, §3

[9] = system: Colon tumours; assay: Three-stage indirect immunohistology on frozen sections, colon tumours; assay type: binding, human; details: tissue culture supernatant neat and diluted 1:10
Procedure: as §1, §2, §4
The slides were again incubated and washed in TBS. […]

B1: Example 75: [A248S,G251T,D253K]HCPB fused via (GGGS)3 linker to N-terminus of humanised 806.077 Fd (HuVH1-HuIgG3), with HuVK4-HuCK light chain (antibody)
heavy: HHGGEHFEGEKVFRVNVEDENHINIIRELASTTQIDFWKPDSVTQIKPHSTVDFRVKAEDTVTVENVLKQNELQYKVLISNLRNVVEAQFDSRVRATGHSYEKYNKWETIEAWTQQVATENPALISRSVIGTTFEGRAIYLLKVGKAGQNKPAIFMDCGFHAREWISPAFCQWFVREAVRTYGREIQVTELLDKLDFYVLPVLNIDGYIYTWTKSRFWRKTRSTHTGSSCIGTDPNRNFDAGWCEIGASRNPCDETYCGPAAESEKETKALADFIRNKLSSIKAYLTIHSYSQMMIYPYSYAYKLGENNAELNALAKATVKELASLHGTKYTYGPGATTIYPSAGTSKDWAYDQGIRYSFTFELRDTGRYGFLLPESQIRATCEETFLAIKYVASYVLEHLYGGGSGGGSGGGSEVQLQQSGPGLVRPSQTLSLTCTASGFNIKDNYMHWVRQPPGRGLEWIGWIDPENGDTEYAPKFRGRVTMLADTSKNQFSLRLSSVTAADTAVYYCHVLIYAGYLAMDYWGQGTLVTVSSASTKGPSVFPLAPCSRSTSGGTAALGCLVKDYFPEPVTVSWNSGALTSGVHTFPAVLQSSGLYSLSSVVTVPSSSLGTQTYTCNVNHKPSNTKVDKRVELKTPLGDTTHTCPRCPEPKSCDTPPPCPRCPEPKSCDTPPPCPRCPEPKSCDTPPPCPRCPAPELLGG
light: DIQMTQSPSSLSASVGDRVTITCSASSSVTYMHWYQQKPGKAPKLWIYSTSNLASGVPSRFSGSGSGTDYTFTISSLQPEDIATYYCQQRSTYPLTFGQGTKLEIKRTVAAPSVFIFPPSDEQLKSGTASVVCLLNNFYPREAKVQWKVDNALQSGNSQESVTEQDSKDSTYSLSSTLTLSKADYEKHKVYACEVTHQGLSSPVTKSFNRGEC
For B1, the “antibody binding to CEA in an ELISA” value [1] was “positive”.

B2: 806.077 antibody: novel murine anti-CEA monoclonal antibody from hybridoma 806.077, ECACC deposit no. 96022936 (antibody, V domains shown)
VH: EVQLQQSGAELVRSGASVKLSCTASGFNIKDNYMHWVKQRPEQGLEWIAWIDPENGDTEYAPKFRGKATLTADSSSNTAYLHLSSLTSEDTAVYYCHVLIYAGYLAMDYWGQGTSVAVSS
VL: DIELTQSPAIMSASPGEKVTITCSASSSVTYMHWFQQKPGTSPKLWIYSTSNLASGVPARFSGSGSGTSYSLTISRMEAEDAATYYCQQRSTYPLTFGAGTKLELKRA
In the case of B2, the reactivity [2] is reported as “negative”, the “binding compared to A5B7” value ([3]; normal spleen, tissue culture supernatant neat and diluted 1:10) is reported as “much reduced binding” and the staining ([3]; spleen (n=6), any of the tissues tested, 2 μg/ml) is reported as “No staining”. For the same molecule, the staining [4] was “No staining”, the “degree of binding (staining score)” value [5] was “++ (++ (moderate)=antibody binding to 50%-75% tumour cells)” and the “staining of normal lung tissues (summary statement)” value ([6]; 4/14 normal lung tissues tested) was “minimal staining”. The “degree of binding (staining score)” value ([6]; normal lung (n=14), score seen in 10/14 tissues, 2 μg/ml) was “−”, the “binding compared to A5B7” value ([6]; normal lung, tissue culture supernatant neat and diluted 1:10) was “much reduced binding” and the “degree of binding (staining score)” value [7] was “+/−”. The staining [8] was “No staining” and the “binding compared to A5B7” value [9] was “equivalent binding”.
